Experimental data as given in article PMC10450741.

Target: biotinylated γTuRC-mBFP-AviTag (human | human (endogenous in HeLa-Kyoto)) (UniProt Q9BSJ2)
Experiment: TIRF microscopy; γTuRC nucleation assay: biotinylated γTuRC-mBFP-AviTag held on the glass by NeutrAvidin (1-2.5 nM used), 11-15 µM tubulin, 1 mM GTP, 1 mM ATP, with or without mScarlet-KIF2A (20-100 nM), mCherry-MCAK or spastin (100 nM); 33°C, 20-30 min

Chain of biotinylated γTuRC-mBFP-AviTag (human | human (endogenous in HeLa-Kyoto)) (Q9BSJ2 whole entry, looked up): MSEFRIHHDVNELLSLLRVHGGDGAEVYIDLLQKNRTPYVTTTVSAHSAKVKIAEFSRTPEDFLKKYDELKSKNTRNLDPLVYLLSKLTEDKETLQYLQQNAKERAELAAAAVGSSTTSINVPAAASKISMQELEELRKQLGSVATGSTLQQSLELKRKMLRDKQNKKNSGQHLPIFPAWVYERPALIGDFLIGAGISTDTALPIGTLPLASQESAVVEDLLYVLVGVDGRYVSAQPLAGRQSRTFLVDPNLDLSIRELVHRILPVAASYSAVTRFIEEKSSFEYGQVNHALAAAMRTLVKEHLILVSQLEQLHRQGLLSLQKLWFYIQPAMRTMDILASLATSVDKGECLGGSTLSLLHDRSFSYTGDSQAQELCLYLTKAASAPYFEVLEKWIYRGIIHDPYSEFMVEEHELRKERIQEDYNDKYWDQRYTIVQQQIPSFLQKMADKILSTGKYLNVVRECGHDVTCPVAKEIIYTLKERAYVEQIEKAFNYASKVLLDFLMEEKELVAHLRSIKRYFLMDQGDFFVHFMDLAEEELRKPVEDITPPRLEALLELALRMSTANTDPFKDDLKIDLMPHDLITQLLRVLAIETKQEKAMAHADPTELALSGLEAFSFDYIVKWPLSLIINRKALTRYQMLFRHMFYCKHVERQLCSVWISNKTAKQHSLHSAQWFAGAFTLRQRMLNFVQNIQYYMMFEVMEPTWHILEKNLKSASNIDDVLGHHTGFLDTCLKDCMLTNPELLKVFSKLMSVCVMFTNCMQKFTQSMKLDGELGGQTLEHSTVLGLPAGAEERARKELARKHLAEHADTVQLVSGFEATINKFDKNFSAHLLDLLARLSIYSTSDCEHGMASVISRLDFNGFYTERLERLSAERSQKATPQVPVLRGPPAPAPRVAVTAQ
Chain of microtubules polymerised from pig brain tubulin (P02550 whole entry): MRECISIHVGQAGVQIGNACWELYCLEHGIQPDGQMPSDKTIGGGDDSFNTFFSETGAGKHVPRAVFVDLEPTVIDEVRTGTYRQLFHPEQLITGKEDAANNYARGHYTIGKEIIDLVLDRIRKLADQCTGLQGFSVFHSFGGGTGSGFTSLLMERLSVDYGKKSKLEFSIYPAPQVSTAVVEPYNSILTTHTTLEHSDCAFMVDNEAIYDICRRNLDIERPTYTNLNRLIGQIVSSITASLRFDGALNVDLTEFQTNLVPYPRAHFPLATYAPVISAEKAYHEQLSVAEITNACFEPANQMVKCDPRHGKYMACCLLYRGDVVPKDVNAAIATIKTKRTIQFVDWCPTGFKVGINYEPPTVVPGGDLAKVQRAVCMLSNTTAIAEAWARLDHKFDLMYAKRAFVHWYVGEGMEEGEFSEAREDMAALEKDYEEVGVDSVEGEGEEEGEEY
Chain of microtubules polymerised from pig brain tubulin (Q767L7 whole entry): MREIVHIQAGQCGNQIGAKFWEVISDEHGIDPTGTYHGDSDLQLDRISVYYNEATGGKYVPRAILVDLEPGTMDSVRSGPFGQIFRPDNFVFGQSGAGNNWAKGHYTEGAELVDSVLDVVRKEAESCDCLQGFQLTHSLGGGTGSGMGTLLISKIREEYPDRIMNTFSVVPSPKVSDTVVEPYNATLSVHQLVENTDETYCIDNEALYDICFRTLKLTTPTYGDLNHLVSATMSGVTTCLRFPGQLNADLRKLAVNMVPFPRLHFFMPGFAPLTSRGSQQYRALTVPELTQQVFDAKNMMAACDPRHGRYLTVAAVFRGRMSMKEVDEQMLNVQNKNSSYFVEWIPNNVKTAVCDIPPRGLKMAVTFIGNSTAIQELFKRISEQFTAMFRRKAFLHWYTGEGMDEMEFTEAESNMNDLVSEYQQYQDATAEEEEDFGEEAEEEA

percent of microtubules released from immobilized γTuRC (with 20 nM mScarlet-KIF2A alone): 2% | percent of microtubules released from immobilized γTuRC (with 100 nM spastin alone): 1% | percent of microtubules released from immobilized γTuRC (with 100 nM spastin and 20 nM mScarlet-KIF2A): 40%
Substance: microtubules polymerised from pig brain tubulin (from UniProt P02550 1-451; Q767L7 1-444) (complex)
